In patent US20160152995A1, “METHODS AND COMPOSITIONS TO IMPROVE THE SPREAD OF CHEMICAL SIGNALS IN PLANTS” (PIONEER HI-BRED INTERNATIONAL, INC., priority 2013, published 2016):
Changes are numbered by the printed parent chain.

B1: L8-3B08 (protein)
chain: MARLDKSKVINSALELLNEVGIEGLTTRKLAQKLGVEQPTLYWHVKNKRALLDALAIEMMDRHQTHYSPLEGESWQDFLRNNAKSLRCALLSHRDGAKVCLGTRWTEQQYESAENMLAFLTQQGFSLENALYAVDAARVFTLGWVLFDQESQVAKEERETPTTDSMPPLLRQAWELKDHQGAEPAFLFGLELIIRGLEKQLKRESGS
modifications: Sulfonylurea responsive repressor
B2: L8-1A06 (protein)
chain: B1 chain with L86C, C88R, L90V, D135S, A137V, W144A, R195A
modifications: Sulfonylurea responsive repressor
B3: L8-3F02 (protein)
chain: B1 chain with L86C, C88R, T121C, D135S, A137V, V139I, W144A, R195A
modifications: Sulfonylurea responsive repressor
B4: L8-1E04 (protein)
chain: B1 chain with S68L, L86C, C88N, D135S, A137V, W144A, F147Y, R203A
modifications: Sulfonylurea responsive repressor
B5: L8-2F12 (protein)
chain: B1 chain with L86C, C88N, V134L, D135Q, A137V, R203S
modifications: Sulfonylurea responsive repressor
B6: L8-3A04 (protein)
chain: B1 chain with L86C, C88R, D135S, A137V, W144A, S205C
modifications: Sulfonylurea responsive repressor
B7: L8-1A05 (protein)
chain: B1 chain with L86C, C88R, A137V, W144A, R195A, R203A
modifications: Sulfonylurea responsive repressor
B8: L8-3A07 (protein)
chain: B1 chain with L86M, D135S, A137V, R195A
modifications: Sulfonylurea responsive repressor
B9: L8-3F08 (protein)
chain: B1 chain with L86C, C88N, C100V, L131M, V134L, D135E, V139I, R203S
modifications: Sulfonylurea responsive repressor
B10: L8-3A05 (protein)
chain: B1 chain with L86C, C88N, D135S, A137V, W144A, R195S, R203S
modifications: Sulfonylurea responsive repressor
B11: L8-3D03 (protein)
chain: B1 chain with S68L, L86C, C88N, V134L, A137V, W144A, R203S
modifications: Sulfonylurea responsive repressor
B12: L8-1A03 (protein)
chain: B1 chain with L86C, C88N, V134L, A137V, W144A, R195A
modifications: Sulfonylurea responsive repressor
B13: L8-1B12 (protein)
chain: B1 chain with L86W, V134L, D135E, A137V, R195A, R203A
modifications: Sulfonylurea responsive repressor
B14: L8-2H01 (protein)
chain: B1 chain with L86C, C88R, V134L, D135E, A137V, W144A
modifications: Sulfonylurea responsive repressor
B15: L8-3B03 (protein)
chain: B1 chain with S68L, L86C, C88R, D135S, A137V, W144A, R203S
modifications: Sulfonylurea responsive repressor
B16: L8-3E05 (protein)
chain: B1 chain with S68C, V134L, D135Q, A137V, V139I, W144C
modifications: Sulfonylurea responsive repressor
B17: L8-3A06 (protein)
chain: B1 chain with S68L, L86C, C88N, D135S, A137V, W144A, R195S
modifications: Sulfonylurea responsive repressor

Each molecule was assayed on E. coli assay strain Km3. Details: library L8 hits; M9 Xgal colony assay; 200 ppb Chlorsulfuron; 24 hrs.
Format: cell-based
Description: Library L6 was assembled, rescued, ligated into pVER7314, transformed into E. coli KM3 and plated out onto LB carbenicillin/kanamycin, and carbenicillin only control media as before. Library plates were then picked into 42 384-well microtiter plates (˜16,000 clones) containing 60 μl LB carbenicillin (Cb) broth per well. After overnight growth at 37° C. the cultures were stamped onto M9 assay plates containing no inducer, 0.2 ppm, and 2.0 ppm chlorsulfuron as test inducer. Following incubation at 30° C. for ˜48 hrs, putative hits responding to chlorsulfuron treatment as determined by increased blue colony color were re-arrayed into six 96-well microtiter plates and used to stamp a fresh set of M9 assay plates to confirm the above results. For a more detailed analysis of the relative induction by chlorsulfuron, digital photographs were taken of the plates after various time points of incubation at 30° C. and colony color intensity measured using the digital image analysis freeware program ImageJ (Rasband, US National Institutes of Health, Bethesda, Md., USA, rsb.info.nih.gov/ij/, 1997-2007). […] From this analysis sequence-activity relationships were derived. […] Briefly, C at position 100, and Q at positions 108 and 109 strongly correlated with activation, while R at position 138, L at position 170, and A or G at position 173 were highly preferred in clones with the lowest background activity. […] This information will aid in the design of further libraries to improve responsiveness to chlorsulfuron.
Library L8 construction and screening. Fourth round shuffling incorporated the best diversity from Rd3 shuffling (BB1860) as well as computational diversity (Table 14). As diversity was very high the library oligo mix was spiked into the parental hit variant oligo mix (5, 10, and 25% mixes) to titer down the number of residue changes per clone. In addition, to varying residues for Cs activity, seven residues (C68, C86, C88, C121, C144, C195, and C203) were varied with TetR family phylogenetic substitutions in an attempt to reduce the number of cysteine residues in the repressor. The PCR assembled libraries were cloned Sac1/Asc1 into pVER7334. This plasmid encodes PBAD promoter controlled expression of a plant optimized TetR DNA binding domain fused to the wt ligand binding domain of TetR(B) encoded by native Tn10 sequence on a Sac1 to Asc1 fragment. Approximately 15,000 clones were screened for blue colony color on the M9 Xgal assay plates +/−200 ppb Chlorsulfuron (Cs). Clones were ranked by ratio of color with inducer after 24 hrs incubation over colony color without inducer for 48 hrs of incubation. The sequence trend in the overall larger population of hits (first re-array) was that L55, R104, W105 and L170 were maintained while the C144A substitution was highly preferred. Sequence trends within the hit population were then noted with respect to repression, induction and fold induction (which corrects for leakiness).
Mutagenesis reactions were transformed into library strain Km3 and 96 colonies tested for substitution by DNA sequence analysis. Substitutions representing each possible residue at each position were then re-arrayed in triplicate onto M9 X-gal assay plates with 0, 20 and 200 ppb Chlorsulfuron. Plates were incubated at 37° C. for 24 and 48 hrs prior to imaging. Residue substitutions were then ranked by activation (emphasis on 20 ppb Cs) and repression characteristics (emphasis on 48 hr time point). The mutation with the greatest impact on activity was substitution of residue N82 to phenylalanine or tyrosine. […] All other preferred substitutions shown in Table 18 either improved repression or improved sensitivity to inducer without compromising repressor function. Certain residues were indispensible to function such as R104, W105, and W174 as substitutions were not allowed. Other residue positions such as R138 and K177 were also flagged as critical since functional substitutions were extremely limited. […]

Molecule | IND = induction with 200 ppb Cs at 24 hrs (blue colony color intensity thru ImageJ analysis)
B1 | 13.0
B2 | 2.1
B3 | 3.4
B4 | 1.5
B5 | 2.7
B6 | 0.5
B7 | 10.8
B8 | 0.7
B9 | 1.5
B10 | 0.3
B11 | 5.9
B12 | 8.6
B13 | 12.5
B14 | 12.9
B15 | 0.6
B16 | 1.4
B17 | 0.3

Same assay, conditions: library L8 hits; M9 Xgal colony assay; ratio IND (200 ppb Cs, 24 hrs) / REP (48 hrs)

Molecule | F. IND = fold induction: induction with 200 ppb Cs at 24 hrs/repression at 48 hrs
B1 | 6.1
B2 | 2.7
B3 | 3.5
B4 | 2.5
B5 | 3.6
B6 | 3.3
B7 | 2.5
B8 | 2.9
B9 | 2.7
B10 | 3.3
B11 | 4.9
B12 | 3.1
B13 | 5.1
B14 | 2.7
B15 | 2.4
B16 | 3.4
B17 | 2.6

Same assay, conditions: library L8 hits; M9 Xgal colony assay; without inducer; 48 hrs

Molecule | REP = repression measured without inducer after 48 hrs (blue colony color intensity thru ImageJ analysis)
B1 | 2.1
B2 | 0.8
B3 | 1.0
B4 | 0.6
B5 | 0.7
B6 | 0.1
B7 | 4.4
B8 | 0.2
B9 | 0.6
B10 | 0.1
B11 | 1.2
B12 | 2.8
B13 | 2.4
B14 | 4.8
B15 | 0.3
B16 | 0.4
B17 | 0.1
